assay: yeast display, Sf9 membrane polyspecificity reagent, FACS + sequencing; frameworks hold sequencing errors
Summary of the method: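 A nanobody's polyreactivity label depends on the gate it was sorted from. Yeast display cells were stained with 10% biotinylated, detergent-solubilized Sf9 membrane reagent for 1 hour at 4 °C, enriched on streptavidin microbeads and sorted by FACS. The low and high (top ~1%) gates were set on anti-HA fluorescence for expression and streptavidin fluorescence for reagent binding.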

Sequence	polyreactivity (PSR sort gate)
QVQLVESGGGLVQAGGSLRLSCAASGSIFASYAMGWYRQAPGKERELVATITQSGGRTYYADSVKGRFTISRDNAKNTVYLQMNSLKPEDTAVYYCARRYWGGGYRMGYWGQGTQVTVSS	high polyreactivity
QVQLVESGGGLVQAGGSLRLSCAASGSIFASYVMGWYRQAPGKERELVAAITSRGTSTYYADSVKGRFTISRDNAKNTVYLQMNSLKPEDTAVYYCAARLYGSAPQHEYWGQGTQVTVSS	low polyreactivity
QVQLVESGGGLVQAGGSLRLSCAASGSIFAVNAMGWYRPAPGKERELVAAITSGGITYYADSVKGRFTISRDNAKNTVYLQMNSLKPEDTAVYYCATVFSVQGWYFGMNYWGQGTQVTVSS	low polyreactivity
QVQLVESGGGLVQAGGSLRLSCAASGSIFAVNAMGWYRQAPGKERELVAAIDWSDGITYYADSVKGRFTISRDNAKNTVYLQMNSLKPEDTAVYYCAADATAYGWYVEQFSFYDNDYWGQGTQVTVSS	high polyreactivity
QVQLVESGGGLVQAGGSLRLSCAASGSIFAVYAMGWYRQAPGKERELVAASSTDYAESVKGRFTISRDNAKNTVFLQLNRLKPEDTAVYYCAKVGFGIPGGFYYWGQGTQVTVSS	low polyreactivity
QVQLVESGGGLVQAGGSLRLSCAASGSIFAVYAMGWYRQAPGKERELVAVITRSGGSTYYADSVKGRFTISRDNAKNTVYLQMISLKPEDTAVYYCAARTGYGYTRYEYWGQGTQVTVSS	high polyreactivity
QVQLVESGGGLVQAGGSLRLSCAASGSIFAVYVMGWYRQAPGKDRELVAAIRRGGTTTYADSVKGRFTISRDNAKTTVYLQMNSLKPEDTAVYYCAADSYARYLYSYYSPYDYWGQGTQVTVSS	low polyreactivity
QVQLVESGGGLVQAGGSLRLSCAASGSIFAWYALGWYRQAPGKERELVADITQSGGSTYYADSVKGRFTISRDNAKNTVYLQMNSLKPEDTAVYYCVDYWYNYLQSGWEDDYWGQGTQVTVSS	low polyreactivity
QVQLVESGGGLVQAGGSLRLSCAASGSIFAYAMGWYRKAPGKEMELVAAISGGSTYYADSVKGRFTISRDNAKNTVYLQMNSVKPEDTAVYYCAADLDDERYYWGQGTQVTVSS	low polyreactivity
QVQLVESGGGLVQAGGSLRLSCAASGSIFAYAMGWYRQAHGKERELVAAISGGSTYYADSVKGRFTISRENAKNTVYLQMNSLKPEETAVYYCAADLDDERYYWGQGTQVTVSS	low polyreactivity
QVQLVESGGGLVQAGGSLRLSCAASGSIFAYNAMGWYRQAPGKEREFVASISSNGDSTFYADSVKGRFTISRDNAKNTVYLQMNSLKPEDTAVYYCAADVIAWDGYLWQRYDYWGQGTQVTVSS	low polyreactivity
QVQLVESGGGLVQAGGSLRLSCAASGSIFAYNAMGWYRQAPGKERELVAANSYSGASTYYADSVKGRFTISRDNAKNTVYLQMNSLKPEDTEVYYCAATSRRRGTKGYWQVWPRFDYWGQGTQVTVSS	high polyreactivity
QVQLVESGGGLVQAGGSLRLSCAASGSIFAYYAIGWYRQAPGKEREFVAAISISGGSTNYADSVKRRFTISRDNAKNTVYLQMNSLKPEDTAVYSCAATSRWSSFGFYGQYNFWGQGTQVTVSS	high polyreactivity
QVQLVESGGGLVQAGGSLRLSCAASGSIFAYYAMGWYREAPGKERELVADITSSGGITYSADSVKGRFTISRDNAKNTVYLLMNSLKPEDTAGYYCNADSWAIGGGSYPYDYWGQGTKVTVSS	low polyreactivity
QVQLVESGGGLVQAGGSLRLSCAASGSIFAYYAMGWYRQAPGKERELVAAISRRGGSTYYADSVKGRFTISRDNAKNTVYLQMNSLKPEDTAVYYCAADGGGTTSLEYGNDYWGQGTQVTVSS	high polyreactivity
QVQLVESGGGLVQAGGSLRLSCAASGSIFAYYAMGWYRQAPGKERELVAAITSGDSTYYADSVKGRFTISRDNAKNTVYLQMNSLKPEDSAVYYCAADVSWRSNWYDYWGQGTQVTVSS	low polyreactivity
QVQLVESGGGLVQAGGSLRLSCAASGSIFAYYVMGWYRKAPGKERELVAAITSVGSTNYADSVKGRFTISRDNAKNTVYLQMNCLKPEDTAVYSCAAVQYQASYYYWGQGTQVTLSS	low polyreactivity
QVQLVESGGGLVQAGGSLRLSCAASGSIFDANAMGWYRQAPGKERELVATIRIGGSTNYADSVKGRFRISRDNAKNTVYLQMYSLKPEDTAGYYCAASRQFRSRRFYYWGQGTQVTVSS	high polyreactivity
QVQLVESGGGLVQAGGSLRLSCAASGSIFDDNAMGWYRQAPGKERELVAAISANDGSTYYADSAKGRFTISRDNAKNTVYLQMNTLKPEDTAVYYCAAERYLSFDRYLYEYYYWGQGTQVTVSS	low polyreactivity
QVQLVESGGGLVQAGGSLRLSCAASGSIFDDNAMGWYRQAPGKERELVATINYGGGRTSYADSVKGRSTISRDNAKNTVYLQMNSLKPEDTAVYYCAADPRQKEDYWGQGTQVTVSS	low polyreactivity
QVQLVESGGGLVQAGGSLRLSCAASGSIFDDYAMGGYRQAHGKERELVAAISSSGTSTYYADSVKGRFTISRDNAKNTVYLQMNCLKPEDTAVYYCAARSAILKSAYLMDYWGQGTQVTVSS	low polyreactivity
QVQLVESGGGLVQAGGSLRLSCAASGSIFDDYAMGWYRQAPGKERELVAAISSSGTSTYYADSVKGRFTISRDNAKNTVYLQMNSLKPEDTAVYYCAKYAGVYEYDYWGQGTQVTVSS	low polyreactivity

Sequence	polyreactivity (PSR sort gate)
QVQLVESGGGLVQAGGSLRLSCAASGSIFDDYAMGWYRQSPGQERELVAAISWSGGSTYYADSVKGRFTISRDNAKNTDYLQMNSLKPDDTAVYYCAGYDYDYLYGEYYWGQGTQVTVSS	low polyreactivity
QVQLVESGGGLVQAGGSLRLSCAASGSIFDFNAMGWYRQVPGKERELVAAITSGGSTNYADSVKGRFTISRDNAKNTVYLQMNSLKPEDTAVYYCAARPARGASQGGYVRPWWYDYWGQGTQVTVSS	low polyreactivity
QVQLVESGGGLVQAGGSLRLSCAASGSIFDFYAMGWYRQAPGKERELVAAITWSGDTTYYADSVKGRFTISRDNAKNTVYLQMNCLKPEDTAVYYCAAEGWYWWYGRDYYWGQGTQVTVSS	high polyreactivity
QVQLVESGGGLVQAGGSLRLSCAASGSIFDFYAMGWYRQAPGKERELVADISSSDGSTSYADSVKGRFTISRDNAKNTVYLQLNSLKPEDTAVYYCAASQLFGWFPYDYWGQGTQVTVSS	high polyreactivity
QVQLVESGGGLVQAGGSLRLSCAASGSIFDFYAMGWYRQAPGKERESVAAISWSGGSTYADSVKGRFTISRDNAKNTVYLQMNSLKPEDTAVYYCAARWGTYWGVLGGDPDIDYDYWGQGTQVTVSS	low polyreactivity
QVQLVESGGGLVQAGGSLRLSCAASGSIFDFYDMGWYRPAPGKERELVAAISSGGGSTYYADSVKGRFTISRDNAKNTVYLQMNSLKPEDTAVYYCAADLKGNYYLGIARYVLYYWGQGTQVTVSS	low polyreactivity
QVQLVESGGGLVQAGGSLRLSCAASGSIFDGNAMGWYRQAPGKERDLVAANTKNDGTTYYADSVKGRFTISRDNAKNTVYLQMNSLKQEDTAVYYCAAESVYQVYTYVSSGDYWGQGTQVTVSS	low polyreactivity
QVQLVESGGGLVQAGGSLRLSCAASGSIFDGNAMVSYRQAPGKDRELVADISRGGSTYYADSVKGPFTISRDNAKNTVYLQMNSLTPEDTAVYYCNVEFFFWPYEYGYWGQGTQVTVSS	low polyreactivity
QVQLVESGGGLVQAGGSLRLSCAASGSIFDGNDMGWYRQAPGKEREKVAAITIGDASRFYADSVKGRFTISRDNAKNTVYFQMNRLKPEDTAVYYCAADRPGLEDDPIYDYWGQGTQVTVSS	low polyreactivity
QVQLVESGGGLVQAGGSLRLSCAASGSIFDGYAMGWYRQAPGKEREFVASIRFSTGRTYYADSVKGRFTISRDNAKNTVYLQMNSLKPEDTAVYYCNAPQGFVWRYSSWGPYDYWGQGTQVTVSS	high polyreactivity
QVQLVESGGGLVQAGGSLRLSCAASGSIFDGYAMGWYRQAPGKETELVARITWSGGSTYYADSVKWRFTISRDNAKNTVYLQMNSLKPEDTAVYYCNVDQVHPTRGLDYWGQGTQVTVSS	low polyreactivity
QVQLVESGGGLVQAGGSLRLSCAASGSIFDGYAMGWYRQAPWKERELVAAISYTGGRKYYADSVKGRFTISRDNAKNTVYLQMNSLKPEDTAVYYCAARYHLGRSPRYYRGQGTQVTVSS	high polyreactivity
QVQLVESGGGLVQAGGSLRLSCAASGSIFDHYVMGWYRQSPGKERELVAAITSGDRTNYADSVKGRFTISRDNAKNTVYLQMNSLKPEDTAVYYCNADYQSYFYYTTWYYEYDYWGQGTQVTVSS	low polyreactivity
QVQLVESGGGLVQAGGSLRLSCAASGSIFDINAMGWYRPAPGKERELVADIRGGDSTNYADSVKGRFTISRDNATNTVYLQMNSLKPEDTAVYYSAARWRRSKYGVYPQRPYDYWGQGTQVTVSS	high polyreactivity
QVQLVESGGGLVQAGGSLRLSCAASGSIFDINVMGWYRQAPGKERELVAAITSGGRTNYADSVKGRFTISRDNAKNTVYLQMNSLKPEDTAVYYCAAVRHRQTYPKYNYWGQGTQVTVSS	high polyreactivity
QVQLVESGGGLVQAGGSLRLSCAASGSIFDIYAKGRSRQAPGKERELVAAISSGGSTTYADSVKGRFTISRDNAKNTVYFQMNCLTPEDTAVYYCATAYTPFAYLVTEMDYWGQGTQVTVLS	low polyreactivity
QVQLVESGGGLVQAGGSLRLSCAASGSIFDIYCMGWYRHAPGKERELVASISGGAGSTNYADSVKGRFTISRDNAKNTVYLQMNSLKPEDTAVYYCAAEVYVPDYFQHKFDVEYEYWGQGTQVTVSS	low polyreactivity
QVQLVESGGGLVQAGGSLRLSCAASGSIFDLYAMGWYRQAPGKERELVAAISSGATTNYADSVKGRFTISRDNAKNTVYLQMNSLKPEDTAVYYCAKYYRISSLYVIVSAYVYWGQGTQVTVSS	low polyreactivity
QVQLVESGGGLVQAGGSLRLSCAASGSIFDNYAMGCYRQAPRKERELVAAINFSDGDTYYGDSVKGRFTISRDNAKNTVYLQMNSLKPEDTAVYYCAAEVWYPPEYYDEYDYWGQGTQVTVSS	low polyreactivity
QVQLVESGGGLVQAGGSLRLSCAASGSIFDPYAMGWYRQAPGKERELVAAINGGSGSTFYADSVKGRFTISRDNAKNTVNLQMNSLKPEDTAVYYCAAKIWRYSPSYYPEPRGDYWGQGTQVTVSS	low polyreactivity
QVQLVESGGGLVQAGGSLRLSCAASGSIFDPYAMGWYRQAPGKERELVAAITASGSSTYYADSVKGRFTISRDNAKNTVYLQMNSLIPEDTAVYYCAADRANWEYLLSCLGYDYWGQGTQVTVSS	low polyreactivity
